From paper PMC7611467 (Journal of molecular biology, 2020)

B1: W37only single-Trp mutant of MgtE (natural protein, Thermus thermophilus, UniProt Q5SMG8 1-450, looked up)
chain: MEEKLAVSLQEALQEGDTRALREVLEEIHPQDLLALWDELKGEHRYVVLTLLPKAKAAEVLSHLSPEEQAEYLKTLPPFRLREILEELSLDDLADALQAVRKEDPAYFQRLKDLLDPRTRAEVEALARYEEDEAGGLMTPEYVAVREGMTVEEVLRFLRRAAPDAETIYYIYVVDEKGRLKGVLSLRDLIVADPRTRVAEIMNPKVVYVRTDTDQEEVARLMADYDFTVLPVVDEEGRLVGIVTVDDVLDVLEAEATEDIHKLGAVDVPDLVYSEAGPVALFLARVRFLVILILTGMVTSSILQGFESVLEAVTALAFYVPVLLGTGGNTGNQSATLIIRALATRDLDLRDFRRVFLKEMGVGLLLGLTLSFLLVGKVYFDGHPLLLPVVGVSLVLIVFFANLVGAMLPFLLRRLGVDPALVSNPLVATLSDVTGLLIYLSVARLLLEAV
B2: W79only single-Trp mutant of MgtE (natural protein, Thermus thermophilus, UniProt Q5SMG8 1-450, looked up)
chain: MEEKLAVSLQEALQEGDTRALREVLEEIHPQDLLALFDELKGEHRYVVLTLLPKAKAAEVLSHLSPEEQAEYLKTLPPWRLREILEELSLDDLADALQAVRKEDPAYFQRLKDLLDPRTRAEVEALARYEEDEAGGLMTPEYVAVREGMTVEEVLRFLRRAAPDAETIYYIYVVDEKGRLKGVLSLRDLIVADPRTRVAEIMNPKVVYVRTDTDQEEVARLMADYDFTVLPVVDEEGRLVGIVTVDDVLDVLEAEATEDIHKLGAVDVPDLVYSEAGPVALFLARVRFLVILILTGMVTSSILQGFESVLEAVTALAFYVPVLLGTGGNTGNQSATLIIRALATRDLDLRDFRRVFLKEMGVGLLLGLTLSFLLVGKVYFDGHPLLLPVVGVSLVLIVFFANLVGAMLPFLLRRLGVDPALVSNPLVATLSDVTGLLIYLSVARLLLEAV
B3: W352only single-Trp mutant of MgtE (natural protein, Thermus thermophilus, UniProt Q5SMG8 1-450, looked up)
chain: MEEKLAVSLQEALQEGDTRALREVLEEIHPQDLLALFDELKGEHRYVVLTLLPKAKAAEVLSHLSPEEQAEYLKTLPPFRLREILEELSLDDLADALQAVRKEDPAYFQRLKDLLDPRTRAEVEALARYEEDEAGGLMTPEYVAVREGMTVEEVLRFLRRAAPDAETIYYIYVVDEKGRLKGVLSLRDLIVADPRTRVAEIMNPKVVYVRTDTDQEEVARLMADYDFTVLPVVDEEGRLVGIVTVDDVLDVLEAEATEDIHKLGAVDVPDLVYSEAGPVALFLARVRFLVILILTGMVTSSILQGFESVLEAVTALAFYVPVLLGTGGNTGNQSATLIIRALATRDLDLRDWRRVFLKEMGVGLLLGLTLSFLLVGKVYFDGHPLLLPVVGVSLVLIVFFANLVGAMLPFLLRRLGVDPALVSNPLVATLSDVTGLLIYLSVARLLLEAV
B4: W380only single-Trp mutant of MgtE (natural protein, Thermus thermophilus, UniProt Q5SMG8 1-450, looked up)
chain: MEEKLAVSLQEALQEGDTRALREVLEEIHPQDLLALFDELKGEHRYVVLTLLPKAKAAEVLSHLSPEEQAEYLKTLPPFRLREILEELSLDDLADALQAVRKEDPAYFQRLKDLLDPRTRAEVEALARYEEDEAGGLMTPEYVAVREGMTVEEVLRFLRRAAPDAETIYYIYVVDEKGRLKGVLSLRDLIVADPRTRVAEIMNPKVVYVRTDTDQEEVARLMADYDFTVLPVVDEEGRLVGIVTVDDVLDVLEAEATEDIHKLGAVDVPDLVYSEAGPVALFLARVRFLVILILTGMVTSSILQGFESVLEAVTALAFYVPVLLGTGGNTGNQSATLIIRALATRDLDLRDFRRVFLKEMGVGLLLGLTLSFLLVGKVYWDGHPLLLPVVGVSLVLIVFFANLVGAMLPFLLRRLGVDPALVSNPLVATLSDVTGLLIYLSVARLLLEAV
B5: W288only single-Trp mutant of MgtE (natural protein, Thermus thermophilus, UniProt Q5SMG8 1-450, looked up)
chain: MEEKLAVSLQEALQEGDTRALREVLEEIHPQDLLALFDELKGEHRYVVLTLLPKAKAAEVLSHLSPEEQAEYLKTLPPFRLREILEELSLDDLADALQAVRKEDPAYFQRLKDLLDPRTRAEVEALARYEEDEAGGLMTPEYVAVREGMTVEEVLRFLRRAAPDAETIYYIYVVDEKGRLKGVLSLRDLIVADPRTRVAEIMNPKVVYVRTDTDQEEVARLMADYDFTVLPVVDEEGRLVGIVTVDDVLDVLEAEATEDIHKLGAVDVPDLVYSEAGPVALFLARVRWLVILILTGMVTSSILQGFESVLEAVTALAFYVPVLLGTGGNTGNQSATLIIRALATRDLDLRDFRRVFLKEMGVGLLLGLTLSFLLVGKVYFDGHPLLLPVVGVSLVLIVFFANLVGAMLPFLLRRLGVDPALVSNPLVATLSDVTGLLIYLSVARLLLEAV
B6: W282only single-Trp mutant of MgtE (natural protein, Thermus thermophilus, UniProt Q5SMG8 1-450, looked up)
chain: MEEKLAVSLQEALQEGDTRALREVLEEIHPQDLLALFDELKGEHRYVVLTLLPKAKAAEVLSHLSPEEQAEYLKTLPPFRLREILEELSLDDLADALQAVRKEDPAYFQRLKDLLDPRTRAEVEALARYEEDEAGGLMTPEYVAVREGMTVEEVLRFLRRAAPDAETIYYIYVVDEKGRLKGVLSLRDLIVADPRTRVAEIMNPKVVYVRTDTDQEEVARLMADYDFTVLPVVDEEGRLVGIVTVDDVLDVLEAEATEDIHKLGAVDVPDLVYSEAGPVALWLARVRFLVILILTGMVTSSILQGFESVLEAVTALAFYVPVLLGTGGNTGNQSATLIIRALATRDLDLRDFRRVFLKEMGVGLLLGLTLSFLLVGKVYFDGHPLLLPVVGVSLVLIVFFANLVGAMLPFLLRRLGVDPALVSNPLVATLSDVTGLLIYLSVARLLLEAV

Molecular target: the molecule itself
Experiment: SEC

Protein	binding result
B1	binds
B2	binds
B3	binds
B4	binds
B5	binds
B6	binds
